Assay: yeast display, Sf9 membrane polyspecificity reagent, FACS + sequencing; frameworks hold sequencing errors
In short: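 After 36–48 hours of galactose induction, yeast (Saccharomyces cerevisiae BJ5465) displaying a synthetic nanobody library were stained at 4 °C for 1 hour with 10% biotinylated, detergent-solubilized Sf9 membrane reagent. Streptavidin microbeads enriched the stained cells before FACS sorting into low and high (top ~1%) gates on anti-HA and streptavidin fluorescence. Each clone's polyreactivity label reflects its gate of origin.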

Sequence	polyreactivity (PSR sort gate)
QVQLVESGGGLVQAGGSLRLSCAASRRIFWSNAMGWYRQEPGKERELVAAISRRGGRTYYADSVKGRFTISLDNAKNSVYLQMNSLKPEDTAVYYCAADGTADYDYWGQGTQVTVSS	high polyreactivity
QVQLVESGGGLVQAGGSLRLSCAASGLIFYKYAMGWYRQAPGKERELVAAIRWSGGSTYYADSVKGRFTISRDNAKNTVYLQMNSLKPEDTAVYYCAALSWNHQYEYWGQGTQVTVSS	high polyreactivity
QVQLVESGGGLVQAGGSLRLSCAASGFTFDKNVMGWYRQAPGKERELVAAISVRGGTTYYADSVKGRFTISRDNAMNTVYLQMNSLKPEDTAVYYCAARAYGPPARYDSWGQGTQVTVSS	low polyreactivity
QVQLVESGGGLVQAGGSLRLSCAASGRTFSYYAMGWYRQAPGKERELVAGISWRGTSTYADSVKGRFTISRDNAKNTVYLQMNSLKPEDTAVYYWNAEVTGHYSYHKFDYWGQGTQVTVSS	low polyreactivity
QVQLVESGGGLVQAGGSLRLSCAASGRIFKRNAMGCYRQAPGKERELVATIDWSGGSTYYADSVKGRFTISRDNAKNTVYLQMNSLKPEDTAVYYCAAASGRWNKYGYWGQGTQVTVSS	low polyreactivity
QVQLVESGGGLVQAGGSLRLTCAASGSIFTTNAKGWYRPAPGTERELVASITWSGGSTYADSVKGRFTISRDNAKYTVYLQMNILKPEDTAVYYGATDPFYPVPPEYEYWGQGTQVTVSS	low polyreactivity
QVQLVESGGGLVQAGGSLRLSCAASGSTFDYYTMGWYRPAPGKERELVAAISSSGGSTYYADSVKGRFTISRDYAKNTVYLQMNSLKPEDTAVYYCAADPSPYGDEYDYWGQGTQVTVSS	low polyreactivity
QVQLVESGGGLVQAGGSLRLSCAASGSTFWQNAMGWYRPAPGKERELVAAIRSRGDRTYYADSVKGRFTISRDNAKNTVYLQMNSLKPEDTAVYYCAAYAGYSDQARYYYWGQGTLVTVSS	high polyreactivity
QVQLVESGGGLVQAGGSLRLSCAASGRTFFDYAMGWYRQAPGKERELVAAITSSGSSTYYADSVKGRFTISRDNAKNTVYLQMNSLKPEDTAVYYCAAGASANKKITSYDYWGQGTQVTVSS	low polyreactivity
QVQLVESGGGLVQAGGSLRLSCDASGLTFSGYVMGWYRQAPGKESELVAAISLSGGSTYYADSVKGRFTISRDNAKNTVYLQMNSLKPEDTAVYYCAARTPFYNSYRRDYWGQGTQVTVSS	high polyreactivity
QVQLQESGGGLVQAGGSLRLTCAASGTISDSGLMGWYRQAAGKERELVAGISSGGITNYADSVKGRFTISRDNAKNTVYLQMNSLIPEDTAVYWGQGTQVTVSS	low polyreactivity
QVQLVESGGGLVQAGGSLRLSCAASGRIFTAYYAMGWYRQEPGKESELVASISSSGTSTYADSVKGRFTISRDNAKNSVYLQMISLKPEDTAVYYCATRKLRTRRYDYGYWGQGTQVTVSS	low polyreactivity
QVQLEESGGGLVQAGGSLRLSCAASGFIFSSNAMGWYRQAPGKESQLVARITRSDGSTYYADSVKGRFTISRDSAKNTVYLQMNSLKPEDTAFDYCAKGRDATHYEYYLYSMDYWGQGTQVTVSS	low polyreactivity
QVQLVESGGGLVQAGGSLRLSCAASGIIFPSYDMGWYRQAPGKERELVAGITDGGDTTYADSVKWRFTISRDNAKNTVYLQMNSLKPEDTAVYYCAADIGYGYWHFDYWGQGTQVTVSW	low polyreactivity
QVQLVESGGGLVQAGGSLRLSCAASGSTYYKYAMGTDRPAPGKERELVASSSRSGGSTSYADSVKGRFTISRDNAKNTVYLQMNSVKPEDTAVYYCAATWRQHPGSMGYWGQGTQVTVSS	high polyreactivity
QVQLVESGGGLVQAGGSLRLSCAASGRTFVGYAMGWYRQAPGKERELVAAISIGGGRTYYADSVKGRFTISRDNAKNTVYLQMNSLKPEDTAVYYCAAVFRQSNRHGGYDYWGQGTQVTVSS	high polyreactivity
QVHLLESGGGLVKAGGILRLSCAASGYIFPRYAMGSYRQSPGKDRELVAAITSGGSTYYADSVKGRFTISRDNAKNTVYLQMNSLKPEDTAVYYCIDPYHGREYEWGQGTQVTVSS	high polyreactivity
QVQLVESGGGLVQAGGSLRLSCAASGRIFSLNAMGWYRQAPGKERELVAAISKRGGSTYYADSVKGRFTISRDNAKNTVYLQMNSLKPEDTAVYYCNKLGSLSGRYDYWGQGTQVTVSS	high polyreactivity
QVQLVESGGGLVQAGGSLRLSCAASGFIFTYYAMGWYRQAPGKERELVAAITVRGGSTYYADSVKGRFTISRDNAKNTVYLQMNSLKPEDTGVYYCNTVHGLWRRYNYWGQGTQVTVSS	high polyreactivity
QVQLVESGGGLVQAGGSLRLSCAASGRIFDGYAIGWYRQAPGKERELVAAISSRGGRTYYADSVKGRFTISRDNAKNTVYLQMNSLKPEDTAVYYCAAVDPYGEGDYWGQGTQVTVSS	low polyreactivity
QVQLVESGGGLVQAGGSLRLSCAASGRIFPAYVMGWYRQPPGKERELVATIDNGGGTYYADSVKGRFTISRDNAKNTVYLQMNSLKPEDTAVYYCARDPHVRWGLKMDYWGQGTQVTVSS	low polyreactivity
QEHLVESGGGLVQAGGTLRLSCAASGGTFYVNDMGWYRQPPGKESELVATITYSGTSTYYADSVTGSFTISRDNAKNTVYLQMNSLKPEDTAVYYGATDVLLYLEPVNLDYCGQGTQVTVSS	low polyreactivity

Sequence	polyreactivity (PSR sort gate)
QVQLVQSGGGLVQAGGSLRLSCAASGRNYSDNPMGWYRQAPGKERELVAANSSTGGTYYADSVKGRFTISRDNAKNTVYLQMNSLKPEDTAVYYCAARYRTLTKYYWGQGTQVSVSS	low polyreactivity
QVQLVESGGGLVQAGGSLPLRCAASGITFYGYTMGWYRQAPGKERELVAAITSVGSTYYADSVKGRFTISRDNAKNTVYLQMNSLKPEDTAVYYCNARPKFRTYNYWGQGTQVTVSS	high polyreactivity
QVQLVESGGGLVQAGGSLRLSCAASGFTFLYNAMGWYRQAPGKERELVAAIDSGGMTNYADSVKGRFTISRDNAKNTVYLQMKSLKPEDTAVYYCAARFTQYITSDDGHYYYWGQGTQVTVSS	low polyreactivity
QVQLVESGGGLVQAGGSLRLSCAASGITFPVYAMGWYRQAPGKEREFVASIRFSTGRTYYADSVKARFTISRDYAKNTVYLQMNSLKPEDTAVYYCRGTTQSPYNSWGQGTQVTVSS	high polyreactivity
QVQLVESGGGLVQAGGSLRLSCAASGLTFGGYAMGWYRQAPGKERELVAAISRSGTSTYYADSVKGRFTISRDNAKNTVYLQMNSLKPEDTAVYYCAKELYSWLQGYRGEGTMDYWGQGTQVTVSS	high polyreactivity
QVQLVESGGGLVQAGGSLRLSCAASGIIFDGNAMGWYRQAPGKERELVAAISSRGSRTYYADSVKGRFTISRDHAKNTVYLQMNSLKPEDTAVYYCNAGYGFRSYGYDPWGQGTQVTVSS	high polyreactivity
QFQLVESRGGLDQAVGSLRLSCAASGFIFAGYVMGLYRQAPGQERELVAGISNSGDNTHYADSVKGRFTISRDNAKNTDYLQMNSLKPEDTAVYYCAAVEQHLAGDDFYSYYYWGQGTQVTLSS	low polyreactivity
QVHLVESGGGLVQAGGSLRLILAASGYIFSSNAMGWYRQAPGKEREFVADISSTGGSTYYADSVKGRFTISRDNAKNTVYCQMNILKPEDTGVYYCAAYIRRYFHYDYWGQGTQVTGSS	high polyreactivity
QVQLVESGGGLVQAGGSLRLSCAASGITFGYYAMGWYRQAPGKERELVATLTDGGGTKYADSVKGRFTISRDNAMNTVYLQMDSLKPEDTAVYYCAAGLRHVYATEYDYWGQGTQVTVSS	low polyreactivity
QVQLVESGGGLVQAGGSLRLSCAASGSIFKFYTMGWYRQAPGKERELVAAISSSDGSTHYADSVKGRFTISRDNAKNTVYLQMNSLKPEDTAVYYCARRRYSRYSVTRGNYWGQGTQVTVSS	high polyreactivity
QVQLVESGGGLVQAGGSLRLSCAASGSIFPLYDMGWYRQAPGKERELVAGITGSGGSSYYADSVKGRFTISRDNAKNTVYLQMNSLKPEDTAVYYCAADYSLYGWWFRNDYWGQGTQVTVSS	low polyreactivity
QVQLVESGGGLVQAGGSLRLICAASGSIFWGYAIGWFRPAPGKERELVAGITATGGSTYYADSVKGRFTISRDNAKNTVYLPMNSLKPEDTAVYYCAAEHGRLATYTWWVIYDYWGHGTQVTVSS	low polyreactivity
QVQLGESGGGFVQAGGLLRLSCAASGRTFRVYAMGWYRQAPGKERELVAAITRGGSTYYADSVKGRFTFSRDNAQNTVYLQMNSLKPEDTAVYSCAADVLRTQPIGWYSHSPLEYWGQGTQVTVSS	high polyreactivity
QVLRVESGGGLVQAGGSLRLSCSASGFIFRPNAMGWYRQAPGKERELVARITYRGGSTYYADSVKGRFTISRDNAKKTVYLQMNSLKPEDTEVYYCAARAVTYAGYTYNYWGQGSQVTVSS	high polyreactivity
QVQLVESGGGLVQAGGSLRLSCAASGSTVHYMGWYRQAHGKESELVAGISWSGGSTYYADSVKGRFTISRDNAKKTVYLQINSLKPEDTAVYYCAADIKIRLYTTGDYWGQGTQVTVSS	low polyreactivity
QVQLVESGGGLVQAGGSLRLSCAASGFTFDGNAMGWYRQAPGKERELVATITSGGNTKYADSVKGRFTISRDNAKNTVYFQMNSLKPEDTAVYYCAAAQYNYRRFNYWGQGTQVTVSS	low polyreactivity
QVQLEESGGGLVQAGGSLRLSCAASGGTFDHYTMGWYRQAPGKERELVAAISRRSGRTYYADSVKGRFTISRDKAKNTVYLQMNSLKPEDTAVYYCNADGYTRAFDYWGQGTQVTVSS	high polyreactivity
QVQLVESGGGLVQAGGSLRLSCAASGFTFIFNAMGWNRQAPGKERELVATISSGGSTYYADSVKGRFTISRDNAKNTVYLQMNSLKPEDTAVYYCNTDDVGGYDYWGQGTQVTLSS	low polyreactivity
QVQLVESGGGLVQAGGSLRLSCAASGSIITGYAMGWYRQAPGKERELVAAITGNAGSTYYADSVKGRFTISRDNAKNTVYLQMNSLKPEDTAVYYCNARSWYVRGDYWGQGTQVTVSS	low polyreactivity
QVQLVESGGRLVQAGGSLRLSCAASGRTFYRYAMGWYRQAPGKERELVAAITWSGGSTYYADSVKGRFTTSRDNAKNTVYLQMNSLKPEDTAVYYCAATKRRFVKFDYWGQGTQVTVSS	low polyreactivity
QVQLVESGGGLVQAGGSLRLSCAASGITLDDYAMGWDRQARGKERELVAAISWSGGSTYYADSVKGRFTISRDNAKNTDYLQMNSLKPADTAVYYCAADPPFRYDYWGQGTQVTVSS	low polyreactivity

From the nanobody polyreactivity screen of Harvey et al. (2022)
